{
  "source": "paper PMC4090420",
  "about": "(Biochemistry, 2013)",
  "target": "2F5 MAb (human)",
  "assay": "ELISA",
  "data": [
    {"binder": "2F5–17 αIM (designed binder, biotin on the birA site) VSDVPRDLEVVAATPTSLLISWPYDKWAYRYYRITYGETGGNSPVQEFTVPGSKSTATISGLKPGVDYTITVYAVTRWYWVPHYSKPISINYRT", "values": [
      {"measurement": "fold lower affinity than the MPER peptide", "value": "~10", "unit": "fold"}
    ]}
  ]
}
